# Data: patent EP4635976A1 (Medigene Immunotherapies GmbH, dated 2025)
# Legend:
# Assay in all cases: cell-based or functional assay
# [1] = target: mismatched peptide #62 …
# [2] = target: mismatched peptide #15 …
# [3] = target: mismatched peptide #265 …
# [4] = target: mismatched peptide #257 …
# [5] = target: mismatched peptide #228 …
# [6] = target: mismatched peptide #323 …
# [7] = target: mismatched peptide #247 …
# [8] = target: mismatched peptide #47 …
# [9] = target: mismatched peptide #280 …
# [10] = target: mismatched peptide #239 …
# [11] = target: mismatched peptide #243 …
# [12] = target: mismatched peptide #79 …
# [13] = target: mismatched peptide #45 …
# [14] = target: mismatched peptide #244 …
# [15] = target: mismatched peptide #240 …
# [16] = target: mismatched peptide #31 …
# [17] = target: mismatched peptide #9 …
# [18] = target: mismatched peptide #41 …
# [19] = target: mismatched peptide #160 …
# [20] = target: mismatched peptide #76 …
# [21] = target: mismatched peptide #221 …
# [22] = target: mismatched peptide #116 …
# [23] = target: mismatched peptide #324 …
# [24] = target: mismatched peptide #246 …
# [25] = target: mismatched peptide #236 …
# [26] = target: mismatched peptide #278 …
# [27] = target: mismatched peptide #84 …
binder,measurement,setting,value
NY-ESO specific TCR (T11.8-10-17) with Uni-TABS epitope V1 at A199 in loop 1 of TRBC (TCR) TCR alpha: QKEVEQNSGPLSVPEGAIASLNCTYSDRGSQSFFWYRQYSGKSPELIMFIYSNGDKEDGRFTAQLNKASQYVSLLIRDSQPSDSATYLCAADDKIIFGKGTRLHILPNIQNPDPAVYQLRDSKSSDKSVCLFTDFDSQTNVSQSKDSDVYITDKTVLDMRSMDFKSNSAVAWSNKSDFACANAFNNSIIPEDTFFPSSDVPCDVKLVEKSFETDTNLNFQNLSVIGFRILLLKVAGFNLLMTLRLWSS TCR beta: DAGVIQSPRHEVTEMGQEVTLRCKPISGHDYLFWYRQTMMRGLELLIYFNNNVPIDDSGMPEDRFSAKMPNASFSTLKIQPSEPRDSAVYFCASSRGGSGYTFGSGTRLTVVEDLNKVFPPEVAVFEPSKAEIAHTQKATLVCLATGFFPDHVELSWWVNGKEVHSGVSTDPQPLKEQPAGSGDKGEVPKDRFSAGSGLNDSRYCLSSRLRVSATFWQNPRNHFRCQVQFYGLSENDEWTQDRAKPVTQIVSAEAWGRADCGITSASYHQGVLSATILYEILLGKATLYAVLVSALVLMAMVKRKDF,"IFN-γ release (IFNg-ELISA), donor MIT038",[1],942 pg/mL
same,"IFN-γ release (IFNg-ELISA), donor MIT 045",[1],918 pg/mL
same,"IFN-γ release (IFNg-ELISA), donor MIT038",[2],520 pg/mL
same,"IFN-γ release (IFNg-ELISA), donor MIT 045",[2],306 pg/mL
same,"IFN-γ release (IFNg-ELISA), donor MIT038",[3],400 pg/mL
same,"IFN-γ release (IFNg-ELISA), donor MIT038",[4],407 pg/mL
same,"IFN-γ release (IFNg-ELISA), donor MIT038",[5],484 pg/mL
same,"IFN-γ release (IFNg-ELISA), donor MIT 045",[5],1200 pg/mL
same,"IFN-γ release (IFNg-ELISA), donor MIT038",[6],3170 pg/mL
same,"IFN-γ release (IFNg-ELISA), donor MIT 045",[6],3000 pg/mL
same,"IFN-γ release (IFNg-ELISA), donor MIT038",[7],537 pg/mL
same,"IFN-γ release (IFNg-ELISA), donor MIT 045",[7],372 pg/mL
same,"IFN-γ release (IFNg-ELISA), donor MIT 045",[8],530 pg/mL
same,"IFN-γ release (IFNg-ELISA), donor MIT038",[9],256 pg/mL
same,"IFN-γ release (IFNg-ELISA), donor MIT038",[10],312 pg/mL
same,"IFN-γ release (IFNg-ELISA), donor MIT038",[11],499 pg/mL
same,"IFN-γ release (IFNg-ELISA), donor MIT 045",[11],356 pg/mL
same,"IFN-γ release (IFNg-ELISA), donor MIT038",[12],370 pg/mL
same,"IFN-γ release (IFNg-ELISA), donor MIT038",[13],1410 pg/mL
same,"IFN-γ release (IFNg-ELISA), donor MIT 045",[13],1520 pg/mL
same,"IFN-γ release (IFNg-ELISA), donor MIT038",[14],387 pg/mL
same,"IFN-γ release (IFNg-ELISA), donor MIT 045",[14],261 pg/mL
same,"IFN-γ release (IFNg-ELISA), donor MIT038",[15],386 pg/mL
same,"IFN-γ release (IFNg-ELISA), donor MIT038",[16],2420 pg/mL
same,"IFN-γ release (IFNg-ELISA), donor MIT 045",[16],1560 pg/mL
same,"IFN-γ release (IFNg-ELISA), donor MIT038",[17],258 pg/mL
same,"IFN-γ release (IFNg-ELISA), donor MIT038",[18],555 pg/mL
same,"IFN-γ release (IFNg-ELISA), donor MIT 045",[18],680 pg/mL
same,"IFN-γ release (IFNg-ELISA), donor MIT038",[19],2800 pg/mL
same,"IFN-γ release (IFNg-ELISA), donor MIT 045",[19],2840 pg/mL
same,"IFN-γ release (IFNg-ELISA), donor MIT038",[20],825 pg/mL
same,"IFN-γ release (IFNg-ELISA), donor MIT 045",[20],939 pg/mL
same,"IFN-γ release (IFNg-ELISA), donor MIT038",[21],900 pg/mL
same,"IFN-γ release (IFNg-ELISA), donor MIT 045",[21],889 pg/mL
same,"IFN-γ release (IFNg-ELISA), donor MIT 045",[22],257 pg/mL
same,"IFN-γ release (IFNg-ELISA), donor MIT038",[23],757 pg/mL
same,"IFN-γ release (IFNg-ELISA), donor MIT 045",[23],628 pg/mL
same,"IFN-γ release (IFNg-ELISA), donor MIT038",[24],345 pg/mL
same,"IFN-γ release (IFNg-ELISA), donor MIT038",[25],476 pg/mL
same,"IFN-γ release (IFNg-ELISA), donor MIT 045",[25],400 pg/mL
same,"IFN-γ release (IFNg-ELISA), donor MIT038",[26],442 pg/mL
NY-ESO specific TCR (T11.8-10-17) with Uni-TABS epitope V1 at A245 in loop 2 of TRBC (TCR) TCR alpha: QKEVEQNSGPLSVPEGAIASLNCTYSDRGSQSFFWYRQYSGKSPELIMFIYSNGDKEDGRFTAQLNKASQYVSLLIRDSQPSDSATYLCAADDKIIFGKGTRLHILPNIQNPDPAVYQLRDSKSSDKSVCLFTDFDSQTNVSQSKDSDVYITDKTVLDMRSMDFKSNSAVAWSNKSDFACANAFNNSIIPEDTFFPSSDVPCDVKLVEKSFETDTNLNFQNLSVIGFRILLLKVAGFNLLMTLRLWSS TCR beta: DAGVIQSPRHEVTEMGQEVTLRCKPISGHDYLFWYRQTMMRGLELLIYFNNNVPIDDSGMPEDRFSAKMPNASFSTLKIQPSEPRDSAVYFCASSRGGSGYTFGSGTRLTVVEDLNKVFPPEVAVFEPSKAEIAHTQKATLVCLATGFFPDHVELSWWVNGKEVHSGVSTDPQPLKEQPALNDSRYCLSSRLRVSATFWQNPRNHFRCQVQFYGLSENDEWTQDRAGSGDKGEVPKDRFSAGSGKPVTQIVSAEAWGRADCGITSASYHQGVLSATILYEILLGKATLYAVLVSALVLMAMVKRKDF,"IFN-γ release (IFNg-ELISA), donor MIT 045",[1],0 pg/mL
same,"IFN-γ release (IFNg-ELISA), donor MIT 045",[2],0 pg/mL
same,"IFN-γ release (IFNg-ELISA), donor MIT 045",[4],0 pg/mL
same,"IFN-γ release (IFNg-ELISA), donor MIT 045",[5],0 pg/mL
same,"IFN-γ release (IFNg-ELISA), donor MIT 045",[6],0 pg/mL
same,"IFN-γ release (IFNg-ELISA), donor MIT 045",[7],0 pg/mL
same,"IFN-γ release (IFNg-ELISA), donor MIT 045",[11],0 pg/mL
same,"IFN-γ release (IFNg-ELISA), donor MIT 045",[12],0 pg/mL
same,"IFN-γ release (IFNg-ELISA), donor MIT 045",[13],0 pg/mL
same,"IFN-γ release (IFNg-ELISA), donor MIT 045",[14],0 pg/mL
same,"IFN-γ release (IFNg-ELISA), donor MIT 045",[16],0 pg/mL
same,"IFN-γ release (IFNg-ELISA), donor MIT 045",[18],0 pg/mL
same,"IFN-γ release (IFNg-ELISA), donor MIT 045",[19],0 pg/mL
same,"IFN-γ release (IFNg-ELISA), donor MIT 045",[20],0 pg/mL
same,"IFN-γ release (IFNg-ELISA), donor MIT 045",[21],0 pg/mL
same,"IFN-γ release (IFNg-ELISA), donor MIT 045",[23],0 pg/mL
same,"IFN-γ release (IFNg-ELISA), donor MIT 045",[24],0 pg/mL
same,"IFN-γ release (IFNg-ELISA), donor MIT 045",[26],0 pg/mL
same,"IFN-γ release (IFNg-ELISA), donor MIT 045",[27],0 pg/mL
